Test results published in article PMC7861563, “FOXP1 Interacts with MyoD to Repress its Transcription and Myoblast Conversion” (Journal of cellular signaling, 2021).

T1: Myoblast Determination protein 1 (MYOD1/MyoD), endogenous in C2C12 (mouse (endogenous in C2C12), UniProt P10085 1-318)
T1 sequence (looked up): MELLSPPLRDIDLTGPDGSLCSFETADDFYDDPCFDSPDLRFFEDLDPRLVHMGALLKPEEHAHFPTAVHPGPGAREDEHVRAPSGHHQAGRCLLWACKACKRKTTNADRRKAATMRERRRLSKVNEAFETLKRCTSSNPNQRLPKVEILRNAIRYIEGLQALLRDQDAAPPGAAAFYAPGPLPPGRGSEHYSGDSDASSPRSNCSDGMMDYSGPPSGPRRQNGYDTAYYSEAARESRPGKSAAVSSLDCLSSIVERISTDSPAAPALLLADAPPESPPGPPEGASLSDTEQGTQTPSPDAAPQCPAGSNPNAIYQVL


Experiments:
[1] = molecular target: MyoD, bacterially expressed (UniProt P10085)
[2] = molecular target: T1, Myoblast Determination protein 1 …; test: cell-based or functional assay

EMSA titration: amount of GST-Fkh for full inhibition of DNA binding of MyoD homodimers (200ng/reaction) [1] [ng]	EMSA titration: amount of GST-Fkh for full inhibition of DNA binding of MyoD-E47N (MyoD 200ng, E47N 50ng/reaction) [1] [ng]	MCK enhancer E box firefly luciferase reporter in 10T1/2 cells after 5-azacytidine, FOXP1 expression plasmid in varying amounts (highest input ~3-fold molar excess over MyoD) [2] [fold]	luciferase reporter driven by 2 E-box consensus MyoD binding sites (2R-luc) in differentiating C2C12, normalized to β-galactosidase [2] [fold]	Molecule
100	400	–	–	GST-FOXP Forkhead domain (GST-Fkh) (domain or fragment)
–	–	~20	~12	Forkhead Box P1 (FOXP1), endogenous in C2C12 (natural protein, mouse (endogenous in C2C12), UniProt P58462 1-705, looked up) MMQESGSETKSNGSAIQNGSSGGNHLLECGALRDTRSNGEAPAVDLGAADLAHVQQQQQQALQVARQLLLQQQQQQQQQQQQQQQQQQQQQQQQQQQQQQQQQQQQQVSGLKSPKRNDKQPALQVPVSVAMMTPQVITPQQMQQILQQQVLSPQQLQVLLQQQQALMLQQQLQEFYKKQQEQLQLQLLQQQHAGKQPKEQQVATQQLAFQQQLLQMQQLQQQHLLSLQRQGLLTIQPGQPALPLQPLAQGMIPTELQQLWKEVTSAHTAEETTSSNHSSLDLTSTCVSSSAPSKSSLIMNPHASTNGQLSVHTPKRESLSHEEHPHSHPLYGHGVCKWPGCEAVCDDFPAFLKHLNSEHALDDRSTAQCRVQMQVVQQLELQLAKDKERLQAMMTHLHVKSTEPKAAPQPLNLVSSVTLSKSASEASPQSLPHTPTTPTAPLTPVTQGPSVITTTSMHTVGPIRRRYSDKYNVPISSADIAQNQEFYKNAEVRPPFTYASLIRQAILESPEKQLTLNEIYNWFTRMFAYFRRNAATWKNAVRHNLSLHKCFVRVENVKGAVWTVDEVEFQKRRPQKISGNPSLIKNMQSSHAYCTPLNAALQASMAENSIPLYTTASMGNPTLGSLASAIREELNGAMEHTNSNESDSSPGRSPMQAVHPIHVKEEPLDPEEAEGPLSLVTTANHSPDFDHDRDYEDEPVNEDME
